Data published in US20260209362A1 (VIB VZW, published 2026).

T1: biotinylated recombinant human IL-12Rβ2 (produced in-house) (human, UniProt Q99665 24-622, random biotinylated)
T1 construct: also called hIL-12RB2; hIL12RB2
T1 sequence: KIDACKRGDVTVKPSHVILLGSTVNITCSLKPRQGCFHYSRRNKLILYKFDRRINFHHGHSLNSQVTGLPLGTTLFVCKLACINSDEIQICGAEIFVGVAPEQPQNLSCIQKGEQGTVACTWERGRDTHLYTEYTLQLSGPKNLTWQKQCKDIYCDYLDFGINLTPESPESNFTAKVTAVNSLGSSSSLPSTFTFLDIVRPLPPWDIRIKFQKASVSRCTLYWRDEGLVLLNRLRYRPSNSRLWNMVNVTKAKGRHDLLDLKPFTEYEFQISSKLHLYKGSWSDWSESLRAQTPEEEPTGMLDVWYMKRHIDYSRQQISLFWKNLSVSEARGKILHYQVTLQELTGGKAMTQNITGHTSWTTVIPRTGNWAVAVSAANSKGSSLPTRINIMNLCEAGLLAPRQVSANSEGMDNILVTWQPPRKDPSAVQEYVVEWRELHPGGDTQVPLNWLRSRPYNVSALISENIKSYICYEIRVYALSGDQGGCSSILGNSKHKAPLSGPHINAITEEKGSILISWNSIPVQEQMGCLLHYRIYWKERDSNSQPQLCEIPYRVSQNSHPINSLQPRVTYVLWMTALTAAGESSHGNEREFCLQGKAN

T2: biotinylated recombinant mouse IL-12Rβ2 (produced in-house) (mouse, UniProt P97378 24-637, random biotinylated)
T2 construct: also called mIL-12RB2; mIL12RB2
T2 sequence: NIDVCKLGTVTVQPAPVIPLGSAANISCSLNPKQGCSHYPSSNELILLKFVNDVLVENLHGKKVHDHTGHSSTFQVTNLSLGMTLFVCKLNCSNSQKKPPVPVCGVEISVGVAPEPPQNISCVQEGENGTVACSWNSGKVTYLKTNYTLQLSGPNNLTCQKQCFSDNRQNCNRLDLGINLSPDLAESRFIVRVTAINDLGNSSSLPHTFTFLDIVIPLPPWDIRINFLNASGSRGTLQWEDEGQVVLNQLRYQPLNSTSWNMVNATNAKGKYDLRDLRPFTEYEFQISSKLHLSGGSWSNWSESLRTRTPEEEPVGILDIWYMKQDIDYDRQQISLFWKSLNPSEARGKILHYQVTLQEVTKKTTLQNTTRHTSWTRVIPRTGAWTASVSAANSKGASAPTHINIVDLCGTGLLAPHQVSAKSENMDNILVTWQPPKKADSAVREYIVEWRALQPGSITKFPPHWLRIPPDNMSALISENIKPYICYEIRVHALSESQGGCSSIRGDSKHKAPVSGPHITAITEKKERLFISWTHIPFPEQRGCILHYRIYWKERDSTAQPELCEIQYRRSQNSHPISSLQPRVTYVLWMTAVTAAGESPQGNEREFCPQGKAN

T3: human IL-12Rβ2 expressed on cells (human, UniProt Q99665 24-862)
T3 construct: HEK293T cells transiently transfected with a human IL-12Rβ2 plasmid (Genscript OHu21785); also called hIL-12RB2
T3 sequence: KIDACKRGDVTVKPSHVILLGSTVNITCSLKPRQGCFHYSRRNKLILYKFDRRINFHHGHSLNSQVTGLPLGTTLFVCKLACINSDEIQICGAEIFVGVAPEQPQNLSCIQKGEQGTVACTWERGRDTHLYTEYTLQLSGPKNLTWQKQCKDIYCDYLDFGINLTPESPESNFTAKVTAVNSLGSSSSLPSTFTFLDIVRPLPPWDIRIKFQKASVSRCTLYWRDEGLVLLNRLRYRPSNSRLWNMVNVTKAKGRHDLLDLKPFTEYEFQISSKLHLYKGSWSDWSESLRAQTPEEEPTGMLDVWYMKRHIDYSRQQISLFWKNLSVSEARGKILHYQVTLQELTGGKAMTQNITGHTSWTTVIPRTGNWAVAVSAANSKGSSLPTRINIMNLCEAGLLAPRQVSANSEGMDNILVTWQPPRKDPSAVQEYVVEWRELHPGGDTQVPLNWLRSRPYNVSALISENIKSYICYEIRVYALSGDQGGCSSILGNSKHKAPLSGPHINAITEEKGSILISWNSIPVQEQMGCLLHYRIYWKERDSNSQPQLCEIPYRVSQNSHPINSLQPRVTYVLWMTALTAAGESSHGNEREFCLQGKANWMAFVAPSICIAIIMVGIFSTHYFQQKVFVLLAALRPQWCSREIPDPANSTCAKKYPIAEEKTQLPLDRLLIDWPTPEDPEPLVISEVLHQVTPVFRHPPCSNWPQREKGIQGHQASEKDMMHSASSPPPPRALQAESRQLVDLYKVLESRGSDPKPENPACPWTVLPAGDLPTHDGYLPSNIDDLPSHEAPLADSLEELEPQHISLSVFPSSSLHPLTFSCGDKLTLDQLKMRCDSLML

T4: biotinylated human recombinant IL-12Rβ2 (produced in-house) (human, UniProt Q99665 24-622, random biotinylated)
T4 construct: Soluble recombinant protein used for panning, ELISA and BLI; also called hIL-12RB2; hIL12RB2
T4 sequence: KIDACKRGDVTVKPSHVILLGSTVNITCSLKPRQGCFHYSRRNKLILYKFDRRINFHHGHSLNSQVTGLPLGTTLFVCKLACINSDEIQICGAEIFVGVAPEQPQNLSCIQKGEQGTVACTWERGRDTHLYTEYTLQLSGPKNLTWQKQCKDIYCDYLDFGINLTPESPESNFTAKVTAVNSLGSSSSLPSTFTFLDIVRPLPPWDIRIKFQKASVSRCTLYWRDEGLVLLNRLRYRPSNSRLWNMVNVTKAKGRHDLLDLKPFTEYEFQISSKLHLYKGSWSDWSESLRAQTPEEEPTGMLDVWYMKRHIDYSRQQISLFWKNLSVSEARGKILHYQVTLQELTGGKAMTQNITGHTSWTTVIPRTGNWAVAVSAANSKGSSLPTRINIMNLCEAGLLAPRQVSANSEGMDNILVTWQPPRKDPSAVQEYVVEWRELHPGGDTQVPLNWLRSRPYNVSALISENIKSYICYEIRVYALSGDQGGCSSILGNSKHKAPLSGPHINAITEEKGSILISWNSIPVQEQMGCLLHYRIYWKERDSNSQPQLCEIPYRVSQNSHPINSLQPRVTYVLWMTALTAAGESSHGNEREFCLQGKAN

T5: human IL-12Rβ2 expressed on cells (human, UniProt Q99665 24-862)
T5 construct: the cell lines are described by plasmid or cDNA number only; also called hIL-12RB2; HEK293T transiently transfected with human IL-12Rβ2
T5 sequence: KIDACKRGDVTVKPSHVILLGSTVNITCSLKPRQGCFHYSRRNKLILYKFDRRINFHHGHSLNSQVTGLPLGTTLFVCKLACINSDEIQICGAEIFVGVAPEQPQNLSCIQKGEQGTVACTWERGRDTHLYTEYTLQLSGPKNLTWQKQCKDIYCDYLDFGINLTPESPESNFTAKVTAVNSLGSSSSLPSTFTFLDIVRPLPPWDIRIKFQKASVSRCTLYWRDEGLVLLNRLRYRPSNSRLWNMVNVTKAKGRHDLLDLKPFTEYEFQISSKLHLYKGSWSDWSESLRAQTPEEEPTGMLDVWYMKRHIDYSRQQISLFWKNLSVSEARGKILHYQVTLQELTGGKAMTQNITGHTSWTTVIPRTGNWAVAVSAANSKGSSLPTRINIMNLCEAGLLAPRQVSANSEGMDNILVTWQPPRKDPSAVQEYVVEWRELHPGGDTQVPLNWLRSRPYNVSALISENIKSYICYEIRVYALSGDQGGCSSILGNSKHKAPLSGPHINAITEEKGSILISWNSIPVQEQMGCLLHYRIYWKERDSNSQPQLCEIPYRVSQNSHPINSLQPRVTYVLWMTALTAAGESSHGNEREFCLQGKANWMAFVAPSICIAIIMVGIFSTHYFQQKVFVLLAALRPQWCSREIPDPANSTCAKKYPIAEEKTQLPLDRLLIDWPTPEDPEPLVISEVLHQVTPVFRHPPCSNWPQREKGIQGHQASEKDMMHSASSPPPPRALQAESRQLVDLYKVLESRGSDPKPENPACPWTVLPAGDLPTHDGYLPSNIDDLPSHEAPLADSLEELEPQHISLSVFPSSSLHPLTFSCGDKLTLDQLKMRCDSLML

T6: biotinylated mouse recombinant IL-12Rβ2 (produced in-house) (mouse, UniProt P97378 24-637, random biotinylated)
T6 construct: Soluble recombinant protein used for panning, ELISA and BLI; also called mIL-12RB2; mIL12RB2
T6 sequence: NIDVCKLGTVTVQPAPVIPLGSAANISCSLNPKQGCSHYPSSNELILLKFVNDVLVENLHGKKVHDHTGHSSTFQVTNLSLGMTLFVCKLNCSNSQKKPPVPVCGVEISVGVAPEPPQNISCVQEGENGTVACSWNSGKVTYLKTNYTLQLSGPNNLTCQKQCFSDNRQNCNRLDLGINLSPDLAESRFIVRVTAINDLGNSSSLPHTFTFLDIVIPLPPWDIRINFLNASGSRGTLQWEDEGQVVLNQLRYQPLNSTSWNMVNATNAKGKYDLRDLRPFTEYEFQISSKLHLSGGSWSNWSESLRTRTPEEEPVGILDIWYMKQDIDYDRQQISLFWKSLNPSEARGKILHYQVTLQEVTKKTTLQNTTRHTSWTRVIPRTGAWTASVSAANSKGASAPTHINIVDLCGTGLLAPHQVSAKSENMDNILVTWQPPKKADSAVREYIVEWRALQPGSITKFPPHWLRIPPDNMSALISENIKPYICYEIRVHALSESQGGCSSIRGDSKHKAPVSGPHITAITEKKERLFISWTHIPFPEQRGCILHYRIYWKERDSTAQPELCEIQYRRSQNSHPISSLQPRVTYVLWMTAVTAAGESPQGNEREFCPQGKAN


How the values were obtained:
[1] = biological target: T1, biotinylated recombinant human IL-12Rβ2 …; experiment: BLI (Octet), P.E. VHH on immobilised biotinylated hIL-12RB2
[2] = biological target: T2, biotinylated recombinant mouse IL-12Rβ2 …; experiment: ELISA, P.E. VHH on biotinylated mIL-12RB2
[3] = biological target: T1, biotinylated recombinant human IL-12Rβ2 …; experiment: BLI (Octet), P.E. VHH on immobilised biotinylated hIL-12RB2, 1:1 model
[4] = biological target: T3, human IL-12Rβ2 expressed on cells; experiment: flow cytometry, P.E. VHH on HEK293T cells transiently expressing hIL-12RB2
[5] = biological target: T1, biotinylated recombinant human IL-12Rβ2 …; experiment: ELISA, P.E. VHH on biotinylated hIL-12RB2, signal ratio to control well
[6] = biological target: T2, biotinylated recombinant mouse IL-12Rβ2 …; experiment: ELISA, P.E. VHH on biotinylated mIL-12RB2, signal ratio to control well
[7] = biological target: T4, biotinylated human recombinant IL-12Rβ2 …; experiment: BLI (Octet Red), periplasmic extract on biotinylated human IL-12Rβ2 on streptavidin tips, 1:1 model
[8] = biological target: T4, biotinylated human recombinant IL-12Rβ2 …; experiment: BLI (Octet Red), periplasmic extract on biotinylated human IL-12Rβ2 on streptavidin tips
[9] = biological target: T5, human IL-12Rβ2 expressed on cells; experiment: flow cytometry, periplasmic extract VHH-HA on HEK293T cells transiently expressing human IL-12Rβ2
[10] = biological target: T6, biotinylated mouse recombinant IL-12Rβ2 …; experiment: ELISA, periplasmic extract on biotinylated mouse IL-12Rβ2; signal over streptavidin control well
[11] = biological target: T6, biotinylated mouse recombinant IL-12Rβ2 …; experiment: ELISA, periplasmic extract on biotinylated mouse IL-12Rβ2
[12] = biological target: T4, biotinylated human recombinant IL-12Rβ2 …; experiment: ELISA, periplasmic extract on biotinylated human IL-12Rβ2; signal over streptavidin control well

Response [1] | binding result [2] | koff [3] | dMFI [4] | ELISA hIL12RB2/control [5] | ELISA mIL12RB2/control [6] | koff [7] | Response [8] | % cells bound [9] | dMFI [9] | mIL12RB2/control (ELISA) [10] | binding result [11] | hIL12RB2/control (ELISA) [12] | Binder
0.327 | no binding | 0.0043 s⁻¹ | 1140 |  |  |  |  |  |  |  |  |  | anti-IL-12Rβ2 VHH clone 3CRHS51 (VHH, not shown: small tags and cut ends, tested as periplasmic extract; also called 3CRASS1) VHH: QVQLQESGGGLVQPGGSLRLSCAASGFTFSTYAMSWVRQAPGKGLEWVSAVNSGGLSTDYADSVEGRFTISRDDAKNMLFLQMNRLKPEDTARYYCAKYEDCSDYVCDRAGYWGQGTQVTVSS
0.339 | no binding | 0.00302 s⁻¹ | 1050 | 3.58 | 0.93 |  |  |  |  |  |  |  | anti-IL-12Rβ2 VHH clone 3CRHS163 (VHH, not shown: small tags and cut ends, tested as periplasmic extract) VHH: QVQLQESGGGLVQPGGSLRLSCTASGFAFSTYWMYWIRQSPEKGFEWVSVVNTGGDITYYADSVKGRFTISRDNAKNTLYLQMNSLKPEDTALYYCARDRTTMSYTRTYYRGGQGTQVTVSS
 |  |  |  |  |  | 0.00441 s⁻¹ | 0.509 | 43.3% | 971 | 1.35 ratio | no binding | 8.77 ratio | anti-IL-12Rβ2 VHH clone 3CAHS41 (clone ID 20394) (VHH, Tested as periplasmic extract; not shown: C-terminal HA tag) VHH: QVQLQESGGGLVQAGDSLRLSCAASGRTFDTYIVGWFRQAPGKEREFVSALSWSDDTTIRDDSLRGRFTISRDNAKNTVYLLMNSLKPEDTAVYYCAAKAKPPAATWSSYRNREWYDYWGQGTQVTVSS
0.491 | no binding | 0.00337 s⁻¹ | 735 | 8.64 | 0.81 |  |  |  |  |  |  |  | anti-IL-12Rβ2 VHH clone 3CRH5 (VHH, not shown: small tags and cut ends, tested as periplasmic extract; also called 3CRHS) VHH: QVQLQESGGGLVQAGGSLVLSCAASGSAALIFLMSWYRQAPGKQRELVAEVSRGGSTTYADSVEGRFTISRDNAKNIVDLQMNSLKPEDTAVYYCKADQNYGDSLRSSWGQGTQVTVSS
0.293 | no binding | 0.00324 s⁻¹ | 1100 | 5.67 | 1 |  |  |  |  |  |  |  | anti-IL-12Rβ2 VHH clone 3CAHS124 (VHH, not shown: small tags and cut ends, tested as periplasmic extract) VHH: QVQLQESGGGLVQPGGSLRLSCAASGRTINAYIMGWFRQAPGKEREFVAAVSGSGGSTYYADSVKGRFTISRDNAKNTVNLQMDNLRSEDTDVYYCAATYESVYLQNPGQYDYWGQGTQVTVSS
